Test results published in patent US20200148765A1 (OSAKA UNIVERSITY, published 2020).
Substitutions are numbered along the chain they refer to.

T1: wild-type human CLDN-5 protein (human, UniProt O00501 1-218)
T1 construct: Four-transmembrane tight junction protein expressed by retrovirus on HT-1080 (or MDCKII) cells; also called hCLDN-5; human Claudin-5 protein
T1 sequence: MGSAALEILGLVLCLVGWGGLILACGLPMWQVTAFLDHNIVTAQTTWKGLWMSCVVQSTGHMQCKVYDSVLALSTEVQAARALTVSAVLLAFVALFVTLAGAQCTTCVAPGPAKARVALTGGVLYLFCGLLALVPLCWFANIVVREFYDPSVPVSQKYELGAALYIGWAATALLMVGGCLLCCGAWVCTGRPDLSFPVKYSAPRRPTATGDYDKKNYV

T2: mouse CLDN-5 protein (mouse, UniProt O54942 1-218)
T2 construct: Expressed on cells by retrovirus; also called mCLDN-5; MDCKII/mCLDN-5
T2 sequence: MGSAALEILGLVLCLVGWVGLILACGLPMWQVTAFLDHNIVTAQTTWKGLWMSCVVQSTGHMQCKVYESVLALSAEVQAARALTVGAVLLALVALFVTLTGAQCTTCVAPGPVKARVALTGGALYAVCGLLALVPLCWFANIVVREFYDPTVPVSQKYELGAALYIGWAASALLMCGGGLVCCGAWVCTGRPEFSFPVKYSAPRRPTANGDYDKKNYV

T3: mCLDN-1 protein (mouse, UniProt O88551 1-211)
T3 construct: Expressed on cells by retrovirus; also called mouse Claudin-1 protein
T3 sequence: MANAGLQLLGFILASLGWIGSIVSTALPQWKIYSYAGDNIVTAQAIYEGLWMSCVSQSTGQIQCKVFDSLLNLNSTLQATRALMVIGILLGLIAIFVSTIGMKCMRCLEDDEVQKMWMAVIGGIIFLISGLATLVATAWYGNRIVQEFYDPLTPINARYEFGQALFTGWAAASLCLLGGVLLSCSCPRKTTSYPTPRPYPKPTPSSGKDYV

T4: mCLDN-2 protein (mouse, UniProt O88552 1-230)
T4 construct: Expressed on cells by retrovirus; also called mouse Claudin-2 protein
T4 sequence: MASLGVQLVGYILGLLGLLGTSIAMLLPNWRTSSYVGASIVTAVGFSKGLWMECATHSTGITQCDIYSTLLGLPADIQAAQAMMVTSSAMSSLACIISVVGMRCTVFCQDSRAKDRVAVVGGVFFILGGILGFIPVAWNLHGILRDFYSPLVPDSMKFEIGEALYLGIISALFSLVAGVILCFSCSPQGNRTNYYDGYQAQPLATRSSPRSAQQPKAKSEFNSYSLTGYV

T5: mCLDN-3 protein (mouse, UniProt Q9Z0G9 1-219)
T5 construct: Expressed on cells by retrovirus; also called mouse Claudin-3 protein
T5 sequence: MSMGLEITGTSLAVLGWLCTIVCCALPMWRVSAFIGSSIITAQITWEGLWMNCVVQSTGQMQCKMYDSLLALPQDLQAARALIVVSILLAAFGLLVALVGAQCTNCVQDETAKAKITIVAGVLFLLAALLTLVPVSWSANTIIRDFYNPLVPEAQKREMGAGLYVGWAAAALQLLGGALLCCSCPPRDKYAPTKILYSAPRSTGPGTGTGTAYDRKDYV

T6: crab-eating macaque CLDN-5 protein (crab-eating macaque, UniProt O00501 1-218 (human entry))
T6 construct: Expressed on cells by retrovirus; also called cCLDN-5; MDCKII/cCLDN-5
T6 chain: T1 sequence with S86G, F127L, C179G, G190S

B1: mouse anti-CLDN-5 antibody M29 (antibody, mouse IgG3, V domains shown)
VH: EVQLVESGGGLVQPKGSLKLSCAASGFTFNIYAMHWVRQAPGKGLEWVARIRSKSSNYATYYVDSVKDRFIISRDDSQSMLYLQVNNLKTEDTAMYYCVREGNWDCFDYWGQGTTLTVSS
VL: DIVMSQSPSSLPVSVGQKVTMTCKSSQSLLYTSNQKNYLAWYQQKPGQSPKLLIYWASTRESGVPDRFTGSGSGTDFTLTISSVKAEDLAIYYCQQYYRYHTFGGGTRLEIK
notes: Hybridoma monoclonal; also called antibody D
B2: rat anti-CLDN-5 antibody R11 (antibody, rat IgG2b, V domains shown)
VH: EVQLVESGGGLVQPGRSRKLSCAASGFTFNNYGMAWVRQAPTKGLEWVASITNSGYTTYYRDSVKGRFTISRDNAKNALYLQMDSLRSEDTATYYCTTGGYGGYFPLFDYWGHGVMVTVSS
VL: DVVMTQTPVSLSVSLGGQTSISCRSSQSLFHSDGNTYLYWYLRKPGQSPQLLIYKVSNRFSGVPDRFSGSGSGTDFTLKISRVEPEDLGLYYCYQGTHYPPTFGSGTKLEI
notes: Hybridoma monoclonal; also called antibody J
B3: rat anti-CLDN-5 antibody R8 (antibody, rat IgG2b, V domains shown)
VH: VKVVESGGGLVQPGRSMKLSCAASGFTFSDYFMAWVRQSPKKGLEWVASINYGGSRTYYEDSVKGRFTISRDNAKSTLYLQMNSLRSEDTATYYCARHPHRLFDYWGQGVMVTVSS
VL: DIVMTQSPSFLAVSVGETVTINCKSSQSFLSSGNQENYLAWYQQKPGQSPKLLIHLASTRESGVPDRFIGSGSGTDFTLTISSMQAEDVAIYYCQQHYDIPYTFGAGTKLEL
notes: Hybridoma monoclonal; also called antibody H
B4: rat anti-CLDN-5 antibody R28 (antibody, rat IgG2a, V domains shown)
VH: EVQLVESGGGLVQPGRSLKLSCAASGFTFSDYFMAWVRQAPKKGLEWVASINYEGSRTYYGDSVKDRFTISRDNTKTTLYLQMTSLRSEDTATYYCARHPRRYFDFWGQGVMVTVSS
VL: DIVMTQSPSSLAVSAGETVTINCKSSRSLFSSGYQENYLAWYQQKPGQSPKMLIYLASTRESGVPDRFIGSGSGTDFTLTINTLQAEDLAIYYCQQHYDIPYTFGAGTKLEL
notes: Hybridoma monoclonal; also called antibody M
B5: rat anti-CLDN-5 antibody R20 (antibody, rat IgG2a, V domains shown)
VH: EVQLVESGGGLVQPGRSMKLSCAVSGFTFSDYYMAWVRQAPKKGLEWVASISYEGRNTYYGDSVKGRFTISRDNAKNTLYLQMNSLRSEDTATYYCARHPRRYFDFWGPGTMVTVSS
VL: DIVMTQSPSSLAVSAGETVTINCKSSQSLLFSGDQENHLAWYQQKAGQSAKLLIYWASTRESGVPDRFIGSGSGADFTLTISSMQAEDRATYYCQQNYDIPYTFGAGTKLEL
notes: Hybridoma monoclonal; also called antibody L

The binders below were run against T1, wild-type human CLDN-5 protein (assay: FACS, hybridoma supernatant on CLDN-expressing cells).
From the text: (§1) By the insertion of a DNA fragment consisting of an hCLDN-1 protein (SEQ ID NO: 30)-encoding sequence, an hCLDN-2 protein (SEQ ID NO: 31)-encoding sequence, an hCLDN-3 protein (SEQ ID NO 32)-encoding sequence, an hCLDN-4 protein (SEQ ID NO: 33)-encoding sequence, an hCLDN-6 protein (SEQ ID NO: 34)-encoding sequence, an hCLDN-7 protein (SEQ ID NO: 35)-encoding sequence, an mCLDN-1 protein (SEQ ID NO: 37)-encoding sequence, an mCLDN-2 protein (SEQ ID NO: 38)-encoding sequence, an mCLDN-3 protein (SEQ ID NO: 39)—encoding sequence, or an mCLDN-5 protein (SEQ ID NO: 29)-encoding sequence, vectors for preparing a retrovirus were obtained. By using these vectors and the vector for preparing a retrovirus prepared in Example 1-2), various CLDN protein-expressing cells were prepared. By using these cells and a culture supernatant of hybridomas producing antibodies as primary antibodies, FACS assay was performed by the following method.
(§2) The obtained CLDN-expressing cells were seeded in a 10 cm dish, and on the next day, the cells were collected. The primary antibodies (100 μL) were added to the obtained 1.0×10⁵ cells and allowed to react for 1 hour at 4° C. At this time, a mixed solution of a C-CPE mutant (C-CPEmt) and a mouse anti-His tag antibody (Abeam) used in Non-Patent Literature 3 was used as positive control. The cells were washed three times with 0.2% BSA-PBS, then mixed with 100 μL of a secondary antibody solution (FITC conjugated goat anti-mouse IgG or anti-rat IgG (Jackson Immune Research, 115-095-003 or 112-095-003) 400x diluted with 1% BSA-PBS, and allowed to react for 1 hour at 4° C. The cells were washed with 0.2% BSA-TBS and then analyzed using FACS caliber (BD Bioscience).

binding result	Binder
binds	B1
binds	B2
binds	B3
binds	B4
binds	B5

Each binder was assayed against T2, mouse CLDN-5 protein in the same assay as above.
From the text: as §1, §2

binding result	Binder
no binding	B1
no binding	B2
no binding	B3
no binding	B4
no binding	B5

What follows are binders tested against T3, mCLDN-1 protein in the same assay as above.
From the text: as §1, §2

binding result	Binder
no binding	B1
no binding	B2
no binding	B3
no binding	B4
no binding	B5

Each binder was assayed against T4, mCLDN-2 protein in the same assay as above.
From the text: as §1, §2

binding result	Binder
no binding	B1
no binding	B2
no binding	B3
no binding	B4
no binding	B5

What follows are binders tested against T5, mCLDN-3 protein in the same assay as above.
From the text: as §1, §2

binding result	Binder
no binding	B1
no binding	B2
no binding	B3
no binding	B4
no binding	B5

Molecular target: T6, crab-eating macaque CLDN-5 protein
Experiment: FACS on CLDN-5-expressing cells, antibody 5 µg/mL
Experimental: as §2
In the same manner as in Example 1-2), a DNA fragment consisting of a cCLDN-5 protein (SEQ ID NO: 28)-encoding sequence or an mCLDN-5 protein (SEQ ID NO: 29)-encoding sequence was inserted into a pCX4pur vector, thereby obtaining vectors for preparing a retrovirus. By using these vectors with the vector for preparing a retrovirus prepared in Example 1-2), various animal species CLDN-5 protein-expressing cells were prepared. By using these cells and the antibodies (antibody concentration: 5 μg/mL, as primary antibody), FACS assay was performed in the same manner as in 3-1).

binding result	Binder
binds	B1
binds	B2
binds	B3
binds	B4
binds	B5
